Reference: patent US20160303127A1, “COMBINATION THERAPY WITH C-MET AND EGFR ANTAGONISTS” (Genentech, Inc., priority 2008, published 2016)
Where “and” joins values, the source holds several entries; their conditions need not be identical. Equal values may be shown once.

Legend:
NCI-H596 tumors = assay: Combination efficacy of MetMAb with erlotinib in the NCI-H596 hu-HGF-Tg-C3H-SCID xenograft model; assay type: in vivo; conditions: NCI-H596 tumors in hu-HGF-Tg-C3H-SCID mice, MetMAb 30 mg/kg IP once, erlotinib 150 mg/kg PO QD x2 weeks; for reduction in tumor growth compared to the vehicle control: day 20
Protocol: Test Material. Anti-c-met monovalent monoclonal antibody MetMAb (rhuOA5D5v2) was provided by the Antibody Engineering Department at Genentech, Inc., in a clear liquid form at 10.6 mg/ml. The vehicle was 10 mM histidine succinate, 4% trehalose dihydrate, 0.02% polysorbate 20, pH 5.7. Erlotinib (TARCEVA™) was provided by OSI Pharmaceuticals to the Pharmaceutics Department at Genentech and was weighed out along with a sufficient amount of vehicle (methylcellulose tween (MCT)). All material was shipped from Genentech, Inc. to the Van Andel Research Institute (VARI; Grand Rapids, Mich.) and was formulated prior to animal treatments. Materials were stored in a refrigerator set to maintain a temperature range of 4° C. to 8° C. The NCI-H596 cell line was obtained from American Type Culture collection (Manassas, Va.).
Species. Forty human HGF transgenic C3H-SCID mice (hu-HGF-Tg-C3H-SCID) were obtained from the in-house colony at the Van Andel Research Institute (VARI; Grand Rapids, Mich.). Five C3H-SCID mice were obtained from Jackson Laboratories. Animals were 4-6 weeks old and weighed 21-22 grams each. Mice were acclimated to study conditions for at least three days prior to tumor cell inoculations. Mice were housed in a shower-in barrier facility. Animals were housed in ventilated caging systems in rooms with filters supplying High-Efficiency Particulate Air (HEPA). Only animals that appeared to be healthy and were free of obvious abnormalities were used for the study.
Study design. As most HGF responsive tumors are driven in a paracrine fashion, a xenograft model that models paracrine driven growth was selected. Mouse HGF is a poor ligand for human c-met leading to a low biological response of human c-met expressing cells lines to mouse HGF (Bhargava, M., et al., 1992; Rong, S., et al., 1992). […]
The NCI-H596 cell line bears a mutated form of the c-met gene lacking exon 14 that encodes a binding site for the E3 ubiquitin ligase Cbl (Kong-Beltran, M., 2006). […] The responsiveness of NCI-H596 can also be seen in vivo, as the cell line readily form tumors in HGF-Tg-SCID mice (expressing human HGF, as noted above), but will not form tumors in immunocompromised mice lacking human HGF (nu/nu nude mice or SCID mice). […]
NCI-H596 cells were cultured in growth media that consisted of RPMI 1640 media (Invitrogen), 2 mM L-glutamine, and 10% fetal bovine serum. […] A subset of cells was counted by trypan blue exclusion and the remainder of the cells was resuspended in 100 μl of sterile 1× PBS to a concentration of 5×10^6 cells per milliliter.
Mice were prepared for inoculation by shaving the dorsal area with clippers. […] Tumors were monitored until they reached a mean volume of 100 mm^3. […]

c-met = target: T1, c-met (Homo sapiens, UniProt P08581, DEL964-1010); assay: c-met phosphorylation in NCI-H596 hu-HGF-Tg-SCID xenograft tumors (IP/immunoblot); assay type: in vivo, mouse xenograft; conditions: MetMAb 30 mg/kg 24 h, erlotinib 150 mg/kg 6 h prior to harvest, average of 5 animals
T1 construct: endogenous in cells; host or cells: NCI-H596 (human NSCLC) cells grown as xenograft tumours in hu-HGF-Tg-SCID mice; tumour lysate, IP and immunoblot
Protocol: (§1) Tumors were allowed to grow to 200-300 mm^3 prior to treatment. Dosing was performed as described in Table 8. Briefly, MetMAb (30 mg/kg) or MetMAb buffer was dosed at time zero hours (0 hr) and methylcellulose tween vehicle (MCT) or erlotinib (150 mg/kg) was dosed at time 18 hours (18 hr). Mice were euthanized and tumors and plasma collected at time 24 hours (24 hr). Tumors were snap frozen in liquid nitrogen and then kept at −70° C. until they were processed for immunoprecipitation and immunoblotting.
Immunoprecipitations and Immunoblotting: To process tumors for protein analysis, tumors were first homogenized using a glass dounce with lysis buffer (Cell Signaling Technology, Inc., Danvers, Mass.), supplemented with 1 mM PMSF, additional protease inhibitor cocktail, and phosphatase inhibitor cocktail I and II (Sigma, Inc., St. Louis, Mo.). Lysates were incubated on ice for one hour and then centrifuged at 14,000×g for five minutes and supernatants collected. Protein concentrations were determined using the BCA™ Protein Assay Kit (Pierce, Inc., Rockford, Ill.) and samples were immunoblotted. […] For direct Western blots, 50 μg of tumor lysate was loaded per lane. Samples were then analyzed by SDS-PAGE and immunoblotting. […] Goat-anti-mouse-IRdye800 (Rockland Immunochemicals, Inc., Gilbertsville, Pa.) and goat-anti-rabbit-AlexaFluor680 (Molecular Probes, Inc., Eugene, Oreg.) were used as secondary antibodies. Immunoblots were imaged and phospho-protein levels were quantified and normalized to total protein levels (e.g. pEGFR over total EGFR) using an Odyssey imager (LI-COR Biosciences, Lincoln, Nebr.).
Twenty hu-HGF-Tg-SCID mice were inoculated with NCI-H596 cells and tumors established, as previously described. Once tumors reached sizes between 200-300 mm^3, mice were evenly grouped into four groups based upon tumor volume and dosing was begun (Table 8). MetMAb was dosed 24 hours prior to tumor harvest whereas erlotinib was dosed 6 hours prior to harvest. Dosing times were selected based on the relative half-life of each therapeutic agent. […]

EGFR = target: T2, EGFR (Homo sapiens, UniProt P00533); assay: EGFR phosphorylation in NCI-H596 hu-HGF-Tg-SCID xenograft tumors (IP/immunoblot); assay type: in vivo, mouse xenograft; conditions: MetMAb 30 mg/kg 24 h, erlotinib 150 mg/kg 6 h prior to harvest, average of 5 animals
T2 construct: endogenous in cells; host or cells: NCI-H596 (human NSCLC) cells grown as xenograft tumours in hu-HGF-Tg-SCID mice; tumour lysate, IP with MI-12-1 and immunoblot
Protocol: as §1
Immunoprecipitations and Immunoblotting: To process tumors for protein analysis, tumors were first homogenized using a glass dounce with lysis buffer (Cell Signaling Technology, Inc., Danvers, Mass.), supplemented with 1 mM PMSF, additional protease inhibitor cocktail, and phosphatase inhibitor cocktail I and II (Sigma, Inc., St. Louis, Mo.). Lysates were incubated on ice for one hour and then centrifuged at 14,000×g for five minutes and supernatants collected. Protein concentrations were determined using the BCA™ Protein Assay Kit (Pierce, Inc., Rockford, Ill.) and samples were immunoblotted. […] Samples were then analyzed by SDS-PAGE and immunoblotting. […] Immunoblots were imaged and phospho-protein levels were quantified and normalized to total protein levels (e.g. pEGFR over total EGFR) using an Odyssey imager (LI-COR Biosciences, Lincoln, Nebr.). […]

NCI-H596 cell line = NCI-H596 cell line in vitro; cited from earlier work

For `C#Cc1cccc(Nc2ncnc3cc(OCCOC)c(OCCOC)cc23)c1` [erlotinib, N-(3-ethynylphenyl)-6,7-bis(2-methoxyethoxy)-4-quinazolinamine], the “reduction in tumor growth compared to the vehicle control” value (NCI-H596 tumors) was “statistically insignificant reduction”, the “mean time to tumor doubling (TTD)” value (NCI-H596 tumors) was 9.5 (±1.2) days and the “pMet/total Met (c-met phosphorylation)” value (c-met) was “did not reduce c-met phosphorylation”. For the same molecule, the “pMet/total Met (c-met phosphorylation)” value (c-met; listed as Erlotinib) was 157 (±103.4) % of vehicle control.

B1: MetMAb: Anti-c-met monovalent monoclonal antibody MetMAb (rhuOA5D5v2) (WO2007/063816) (antibody, chains of the INN, looked up, V domains shown)
VH: EVQLVESGGGLVQPGGSLRLSCAASGYTFTSYWLHWVRQAPGKGLEWVGMIDPSNSDTRFNPNFKDRFTISADTSKNTAYLQMNSLRAEDTAVYYCATYRSYVTPLDYWGQGTLVTVSS
VL: DIQMTQSPSSLSASVGDRVTITCKSSQSLLYTSSQKNYLAWYQQKPGKAPKLLIYWASTRESGVPSRFSGSGSGTDFTLTISSLQPEDFATYYCQQYYAYPWTFGQGTKVEIK
modifications: one-armed
With B1 the “reduction in tumor growth compared to the vehicle control” value (NCI-H596 tumors) was 67%, the “mean time to tumor doubling (TTD)” value (NCI-H596 tumors) was 17.8 (±2.2) days and the “pMet/total Met (c-met phosphorylation)” value (c-met) was 12% (+/−3.6%) % of vehicle control and 12 (±3.5) % of vehicle control. For the same molecule, the “pEGFR/total EGFR (phosphorylation of EGFR)” value (EGFR) was 62% (+/−21.6%) % of vehicle control and 62 (±21.6) % of vehicle control and the HGF-driven proliferation (NCI-H596 cell line) was “blocks HGF-driven proliferation”.
